Test results: PMC5705180

What follows are substances tested against Recombinant human IGF-II R (CI-MPR), cation-independent mannose-6-phosphate receptor (human) (UniProt P11717) (assay: SPR).

| Kd | Substance |
| --- | --- |
| 168 nM | Phosphoglycoprotein 32: bovine ribonuclease B carrying the unnatural bis-M6P Man3GlcNAc2 glycan (from UniProt P61823 27-150) (enzyme) |
| 28.9 nM | Bis-phosphoglycoprotein 30: bovine ribonuclease B carrying a bis-M6P-Man6GlcNAc2 glycan at Asn-34 (from UniProt P61823 27-150) (enzyme) |

| Substance | Kd |
| --- | --- |
| Cyclic phosphoglycopeptide 34: HIV-1 ZM109 V1V2 cyclic peptide carrying two bis-M6P-Man6GlcNAc2 glycans at N160 and N173 | 2.35 nM |
